The results in this text go back to patent US12247072 (ASHER BIOTHERAPEUTICS, dated 2025).

One assay deals with T1, mouse CD8b (mouse, UniProt P10300 22-175, limits assumed).
T1 sequence (looked up): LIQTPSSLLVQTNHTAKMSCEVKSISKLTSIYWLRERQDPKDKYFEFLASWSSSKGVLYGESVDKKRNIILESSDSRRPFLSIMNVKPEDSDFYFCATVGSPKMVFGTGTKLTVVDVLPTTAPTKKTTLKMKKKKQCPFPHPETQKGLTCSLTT
The experiment in a line: not described.

Another assay has as its target T2, mouse CD8 (mouse, UniProt P01731 28-247; P10300 22-213).
T2 construct: copies: 1 + 1
The experiment in a line: not described.

T2 sequence (P01731 28-247 limits assumed, one chain of several): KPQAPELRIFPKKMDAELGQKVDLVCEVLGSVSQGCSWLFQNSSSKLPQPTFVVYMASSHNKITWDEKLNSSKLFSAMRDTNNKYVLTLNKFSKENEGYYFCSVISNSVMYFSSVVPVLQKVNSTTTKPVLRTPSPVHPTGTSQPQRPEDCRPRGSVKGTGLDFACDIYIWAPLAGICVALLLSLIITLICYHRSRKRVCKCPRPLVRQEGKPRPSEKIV

B1: xhCD8.1 (antibody, V domains shown)
VH: QVQLVQSGAEVKKPGSSVKVSCKASGGTFSSYAISWVRQAPGQGLEWMGGIIPGYATANYAQKFQGRVTITADESTSTAYMELSSLRSEDTAVYYCARDAAGIRLFADWGQGTLVTVSS
VL: DIQMTQSPSSLSASVGDRVTITCRASQSIYGALNWYQQKPGKAPKLLIYGASNLQSGVPSRFSGSGSGTDFTLTISSLQPEDFATYYCQSTYTAPWTFGGGTKVEIK
notes: Anti-human CD8 antibody; human IgG1/kappa; also called xhCD8v12; xCtrl (in mouse studies)
With B1, the binding result in the assay with mouse CD8b and with mouse CD8 was “no binding” each time.
